From US20120195900A1 (AbbVie / Abbott, published 2012) come the findings set out here.

One assay concerns the target hIL-13 (human, UniProt P35225 35-146, limits assumed). Description: cell-based or functional assay.
The target of assay [1] is T1, recombinant human IL-18 (human, UniProt Q14116 37-193). As to the kind of experiment: cell-based or functional assay.
Assay [2] addresses T1, recombinant human IL-18. Description: cell-based or functional assay. This is another data set of the same source.
Assay [3] concerns the target T2, human IL-12 (human, UniProt P29459 23-219; P29460 23-328, biotinylated in the ELISA (site not stated)).
T2 sequence (looked up) 1: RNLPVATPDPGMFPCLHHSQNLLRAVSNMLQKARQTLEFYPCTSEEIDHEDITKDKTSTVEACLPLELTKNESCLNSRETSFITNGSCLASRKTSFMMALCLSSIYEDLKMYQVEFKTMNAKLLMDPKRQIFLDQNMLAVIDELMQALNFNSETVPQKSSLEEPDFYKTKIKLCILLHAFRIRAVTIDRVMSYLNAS
T2 sequence (looked up) 2: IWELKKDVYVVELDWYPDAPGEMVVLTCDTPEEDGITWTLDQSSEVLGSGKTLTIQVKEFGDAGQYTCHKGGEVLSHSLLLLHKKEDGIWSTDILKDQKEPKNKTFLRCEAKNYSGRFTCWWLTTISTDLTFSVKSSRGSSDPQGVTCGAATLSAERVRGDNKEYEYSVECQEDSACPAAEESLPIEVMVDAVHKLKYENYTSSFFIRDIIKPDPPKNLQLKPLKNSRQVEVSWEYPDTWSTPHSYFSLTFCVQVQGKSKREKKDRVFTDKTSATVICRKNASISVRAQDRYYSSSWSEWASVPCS
As to the kind of experiment: cell-based or functional assay.

In assay [4] the target is T2, human IL-12. Description: ELISA, biotinylated IL-12 on streptavidin plates, anti-human IgG detection (column head: ED50).
Description: Plates were washed five times with 1× PBST. Biotinylated IL-12 was diluted to 100 ng/ml in 10% superblock/PBST and 100 ml was added to each well. Plates were incubated for 2 hours at room temperature and then washed five times with 1× PBST. Control antibodies (human IgG and 1D4.1) and TVD-Igs were diluted to 1000 ng/ml and serially diluted 1:3 in 10% SB/PBST. Samples were added to the plate at 100 ml per well and incubated for 1 hour at RT. Plates were then washed five times. […] Plates were incubated for 1 hour at Room Temperature and then washed five times. […] Plates were read on a spectrophotometer at OD 450 nm. The EC50 values were determined using sigmoidal curve fit analysis from the binding curve.

Where two headings read alike, the source gives them in different places.

Chain of hIL-13 (P35225 35-146 limits assumed): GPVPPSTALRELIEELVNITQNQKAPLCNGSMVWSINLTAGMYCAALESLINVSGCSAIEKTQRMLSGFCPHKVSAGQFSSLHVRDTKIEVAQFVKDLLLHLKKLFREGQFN

B1: 13C5.5L3F (anti-IL-13 monoclonal antibody) (antibody, V domains shown)
VH: EVTLRESGPGLVKPTQTLTLTCTLYGFSLSTSDMGVDWIRQPPGKGLEWLAHIWWDDVKRYNPALKSRLTISKDTSKNQVVLKLTSVDPVDTATYYCARTVSSGYIYYAMDYWGQGTLVTVSS
VL: DIQMTQSPSSLSASVGDRVTISCRASQDIRNYLNWYQQKPGKAPKLLIFYTSKLHSGVPSRFSGSGSGTDYTLTISSLQPEDIATYYCQQGLTPPLTFGGGTKVEIKR
B1: the “neutralization potency (IC50, nM), A-549 bioassay: TARC production” value with hIL-13 is 0.05 nM.

B2: mAb 2.5 (anti-hIL-18 monoclonal antibody) (antibody, V domains shown)
VH: EVQLVQSGTEVKKPGESLKISCKGSGYTVTSYWIGWVRQMPGKGLEWMGFIYPGDSETRYSPTFQGQVTISADKSFNTAFLQWSSLKASDTAMYYCARVGSGWYPYTFDIWGQGTMVTVSS
VL: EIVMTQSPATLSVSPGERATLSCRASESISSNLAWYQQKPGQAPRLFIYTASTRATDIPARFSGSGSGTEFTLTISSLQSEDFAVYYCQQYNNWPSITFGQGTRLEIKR
Consider B2, for which the “neutralization potency (IC50, nM), KG-1 bioassay: IFN-γ production” value with recombinant human IL-18 [1] was 0.1 nM; with recombinant human IL-18 [2] it was 0.58 nM.

B3: 1D4.1 (anti-hIL-12 monoclonal antibody) (antibody, V domains shown)
VH: EVTLRESGPALVKPTQTLTLTCTFSGFSLSKSVMGVSWIRQPPGKALEWLAHIYWDDDKYYNPSLKSRLTISKDTSKNQVVLTMTNMDPVDTATYYCARRGIRSAMDYWGQGTTVTVSS
VL: DIVMTQSPDSLAVSLGERATINCKASQSVSNDVAWYQQKPGQPPKLLIYYASNRYTGVPDRFSGSGSGTDFTLTISSLQAEDVAVYYCQQDYNSPWTFGGGTKVEIKR
notes: also called Control monoclonal antibody; parental monoclonal antibody 1D4.1
For the molecule B3, the “neutralization potency (IC50, nM), human IL-12 bioassay: IFN-γ release from PHA blast cells” value in the assay with human IL-12 [3] is 0.624 nM. In the assay with human IL-12 [4], this molecule returned an EC50 of 0.38 nM.

Broadly, the EC50 is the concentration giving half of the maximal effect. A low value points to greater potency.
